Substitutions are numbered along the chain they refer to.

For experiment [1], the target named is T1, human c-Kit-Fc fusion protein (human, UniProt P10721 26-520, limits assumed).
T1 construct: not shown: Fc part of the fusion protein
Nature of the experiment: ELISA, coated human c-Kit-Fc, against AMG191. The method, then:
(§1) Antigen binding activity measurement by ELISA. 96-well plates (Nunc, Roskilde, Denmark) were coated with 1 ug/ml human c-Kit-Fc fusion protein in phosphate-buffered saline (PBS) for 16 hr at 4° C. After blocking for 1 hr with 0.4% BSA in PBS at room temperature, anti-c-Kit antibodies were added in 1/3 sequential dilutions, and incubated for 1 hr at room temperature. Plates were subsequently washed three times and incubated with HRP-conjugated goat anti-human kappa-specific antibody for 1 hr at room temperature. After washing, plates were developed with TMB. The reaction was stopped with 2M […], and OD was measured at 450 nm.

Experiment [2] has as its target T1, human c-Kit-Fc fusion protein. Nature of the experiment: ELISA, coated human c-Kit-Fc. The method, then: as §1
Experiment [3] shares this target. Nature of the experiment: ELISA, coated human c-Kit-Fc, FIG. 2D (members named at paragraph 117). The method, then:
as §1

Experiment [4] shares this target. Nature of the experiment: ELISA, coated human c-Kit-Fc; AMG191 is the reference. The method, then:
as §1
For orientation: An ELISA detects its analyte on a solid surface through an enzyme-linked reagent.

For experiment [5] the target is unchanged. Nature of the experiment: ELISA, coated human c-Kit-Fc, FIG. 2C (members named at paragraph 117). The procedure:
as §1

For experiment [6] the target is unchanged. Nature of the experiment: ELISA, coated human c-Kit-Fc, FIG. 3D, against AMG191 (members named at paragraph 118). The procedure: as §1
Experiment [7] has the same target. Nature of the experiment: ELISA, coated human c-Kit-Fc, FIG. 3C, against AMG191. The method, then: as §1

T1 sequence (P10721 26-520 limits assumed): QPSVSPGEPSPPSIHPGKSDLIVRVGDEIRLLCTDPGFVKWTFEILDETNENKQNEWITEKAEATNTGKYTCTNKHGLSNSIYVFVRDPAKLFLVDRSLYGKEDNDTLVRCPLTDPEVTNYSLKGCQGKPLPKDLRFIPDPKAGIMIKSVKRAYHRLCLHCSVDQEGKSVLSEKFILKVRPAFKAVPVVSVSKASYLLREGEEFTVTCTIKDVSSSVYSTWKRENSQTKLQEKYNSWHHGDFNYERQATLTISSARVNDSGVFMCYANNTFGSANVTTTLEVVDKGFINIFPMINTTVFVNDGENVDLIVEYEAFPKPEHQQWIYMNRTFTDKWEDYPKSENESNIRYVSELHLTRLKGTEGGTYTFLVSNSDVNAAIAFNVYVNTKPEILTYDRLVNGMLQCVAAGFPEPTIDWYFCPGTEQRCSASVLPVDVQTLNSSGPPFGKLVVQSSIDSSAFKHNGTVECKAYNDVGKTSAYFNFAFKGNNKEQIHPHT

B1: AF11 (antibody, V domains shown)
VH: QVQLVQSGAEVKKPGASVKVSCKASGYTFTSYNMHWVRQAPGQGLEWMGVIYSGNGDTSYAQKFKGRVTITADKSTSTAYMELSSLRSEDTAVYYCARERDTRFGNWGQGTLVTVSS
VL: DIVMTQSPDSLAVSLGERATINCRASESVDIYGQSFMHWYQQKPGQPPKLLIYLASNLESGVPDRFSGSGSGTDFTLTISSLQAEDVAVYYCQQNNEDPYTFGGGTKVEIK
On to B1, for which the binding result in experiment [1] is reported as “binds”.

B2: HF112 (antibody, human IgG1, V domains shown)
VH: B1 VH with K65Q
VL: DIVMTQSPLSLPVTPGEPASISCRASESVDIYGQSFMHWYLQKPGQSPQLLIYLASNLESGVPDRFSGSGSGTDFTLKISRVEAEDVGVYYCQQNNEDPYTFGGGTKVEIK
In the case of B2, the binding result in experiment [2] is listed as “binds”.

B3: AF-3 (antibody, V domains shown)
VH: B1 VH with A61N, E99D
VL: B1 VL
In the case of B3, the binding result in experiment [3] is given as “binds”.

B4: AMG191 (antibody, V domains shown)
VH: B1 VH with A61N
VL: B1 VL with Q34N
notes: Humanized form of HB-10716; constant region has an N to E mutation of position 297 (unglycosylated, silenced Fc); kappa light chain implied by the anti-human kappa detection
With B4, in experiment [4], the binding result is reported as “binds”.

B5: AF12 (antibody, human IgG1, V domains shown)
VH: B1 VH with A61N, K65Q
VL: B1 VL
B5: the binding result in experiment [5] is “binds”.

B6: AF-2-1 (antibody, V domains shown)
VH: B1 VH with N55Q, A61N
VL: B1 VL
For B6, the binding result in experiment [3] is “binds”.

B7: AF112 (antibody, human IgG1, V domains shown)
VH: B1 VH with K65Q
VL: B1 VL
Regarding B7, the binding result in experiment [5] was “binds”.

B8: NF11 (antibody, V domains shown)
VH: EVQLLESGGGLVQPGGSLRLSCAASGFTFTSYNMHWVRQAPGKGLEWVGVIYSGNGDTSYAQKFKGRFTISADKSKNTAYLQMNSLRAEDTAVYYCARERDTRFGNWGQGTLVTVSS
VL: B2 VL
Consider B8, for which the binding result in experiment [6] is given as “binds”.

B9: NF12 (antibody, V domains shown)
VH: B8 VH with A61N, K65Q
VL: B2 VL
Take B9: the binding result in experiment [2] is recorded as “binds”.

B10: NF112 (antibody, human IgG1, V domains shown)
VH: B8 VH with K65Q
VL: B2 VL
In the case of B10, the binding result in experiment [2] is reported as “binds”.

B11: NF (antibody, V domains shown)
VH: B8 VH with A61N
VL: B2 VL with Q34N
notes: also called antibody with the new frameworks (NF)
Regarding B11, the binding result in experiment [7] is given as “binds”.
